Among the data in publication PMC10256718 are stoichiometry N values, retold here.

This assay deals with Quinol-dependent nitric oxide reductase from Alcaligenes xylosoxidans (His-tagged AxqNOR-BRIL) (Alcaligenes xylosoxidans). Briefly: cryo-EM structure; single-particle cryoEM, 2.2 Å, refined in C2 symmetry; sample at 3 mg/mL in Tris-HCl buffer pH 7.0, 150 mM NaCl, 0.05% DTM; dimer.

On to “Quinol-dependent nitric oxide reductase from Alcaligenes xylosoxidans (His-tagged AxqNOR-BRIL) (enzyme)”, for which the stoichiometry N is 2.

One may read the stoichiometry N as a count of units in the complex or per binding partner.
